Source: publication PMC2913173 (Journal of molecular biology, 2009)
Ends that are not written are not given here. eCPX = enhanced circularly permuted OmpX display protein

Target: T1, Bcl-xL (Homo sapiens, UniProt Q07817, DEL46-85)
Assay: not given
Conditions: L78A amino acid change relative to Bak(72–87); cited from earlier work

Substance	Decrease in binding affinity of Bak(72–87) for Bcl-xL
L78A: Bak(72–87) with the critical leucine in position 78 changed to alanine, displayed on eCPX (GQVGRQAAIIGDDINR-eCPX) [Construct L78A]	~1000 fold

Target: T1, Bcl-xL
Assay: Cell surface display equilibrium binding assay with flow cytometry
Conditions: cells displaying Bak–eCPX fusions, biotinylated Bcl-xL and SAPE

Substance	Binding to Bcl-xL in words (fluorescence of cell population)
Bak(72–85): Bak(72–87) with deletion of residues N86 and R87, eCPX fusion (GQVGRQLAIIGDDI-eCPX)	reduction in binding to nearly background levels
Bak(72–117): eCPX fusion protein comprising helices α3 and α4 of Bak (GQVGRQLAIIGDDINRRYDSEFQTMLQHLQPTAENAYEYFTKIATS-eCPX)	fluorescence only slightly above background levels
Bak(74–87) GG: eCPX–Bak(74–87) in which the GQ sequence preceding the Bak peptide was changed to GG (GGVGRQLAIIGDDINR-eCPX)	bound Bcl-xL equally as well as Bak(72–87)
L78A: Bak(72–87) with the critical leucine in position 78 changed to alanine, displayed on eCPX (GQVGRQAAIIGDDINR-eCPX) [Construct L78A]	only background fluorescence
mut7: Bak(72–87) library variant: position 74 L, 78 L, 81 L, 85 F (GQLGRQLAILGDDFNR-eCPX)	highest fluorescence
mut8: Bak(72–87) library variant: position 74 L, 78 L, 81 F, 85 F (GQLGRQLAIFGDDFNR-eCPX)	highest fluorescence
